# Measurements taken from patent publication US20110097323A1 (published 2011).
# Substitutions are numbered along the chain they refer to. In names and notes the source's numbering stands.
# T1: CD32B (FcγRII-B) (UniProt P31994 43-217, limits assumed)
# T1 construct: No species or construct stated
# T1 sequence (looked up): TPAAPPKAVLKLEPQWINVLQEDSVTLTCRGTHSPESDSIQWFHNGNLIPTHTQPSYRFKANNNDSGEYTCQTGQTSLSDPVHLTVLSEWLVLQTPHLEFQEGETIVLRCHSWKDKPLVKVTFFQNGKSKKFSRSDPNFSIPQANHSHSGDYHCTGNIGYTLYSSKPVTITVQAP
# B1: ch4D5-FcMT1 (antibody, human IgG1, kappa)
# heavy: QVQLQQSGPELVKPGASLKLSCTASGFNIKDTYIHWVKQRPEQGLEWIGRIYPTNGYTRYDPKFQDKATITADTSSNTAYLQVSRLTSEDTAVYYCSRWGGDGFYAMDYWGQGASVTVSSASTKGPSVFPLAPSSKSTSGGTAALGCLVKDYFPEPVTVSWNSGALTSGVHTFPAVLQSSGLYSLSSVVTVPSSSLGTQTYICNVNHKPSNTKVDKRVEPKSCDKTHTCPPCPAPELLGGPSVFLLPPKPKDTLMISRTPEVTCVVVDVSHEDPEVKFNWYVDGVEVHNAKTKPPEEQYNSTLRVVSILTVLHQDWLNGKEYKCKVSNKALPAPIEKTISKAKGQPREPQVYTLPPSRDELTKNQVSLTCLVKGFYPSDIAVEWESNGQPENNYKTTPLVLDSDGSFFLYSKLTVDKSRWQQGNVFSCSVMHEALHNHYTQKSLSLSPGK
# light: DIVMTQSHKFMSTSVGDRVSITCKASQDVNTAVAWYQQKPGHSPKLLIYSASFRYTGVPDRFTGSRSGTDFTFTISSVQAEDLAVYYCQQHYTTPPTFGGGTKVEIKRTVAAPSVFIFPPSDEQLKSGTASVVCLLNNFYPREAKVQWKVDNALQSGNSQESVTEQDSKDSTYSLSSTLTLSKADYEKHKVYACEVTHQGLSSPVTKSFNRGEC
# B2: ch4D5-wild-type Fc (antibody, human IgG1, kappa)
# heavy: not shown
# light: B1 light
# notes: Chimeric 4D5 antibody; wild-type Fc; also called ch4D5-FcWT; ch4D5-FcWT (wild-type Fc)
# B3: Fc variant D270E G316D P396L R416G (other, UniProt P01857-1 99-330, looked up, name in EU numbering)
# chain: EPKSCDKTHTCPPCPAPELLGGPSVFLFPPKPKDTLMISRTPEVTCVVVDVSHEEPEVKFNWYVDGVEVHNAKTKPREEQYNSTYRVVSVLTVLHQDWLNDKEYKCKVSNKALPAPIEKTISKAKGQPREPQVYTLPPSRDELTKNQVSLTCLVKGFYPSDIAVEWESNGQPENNYKTTPLVLDSDGSFFLYSKLTVDKSGWQQGNVFSCSVMHEALHNHYTQKSLSLSPGK
# notes: domain: Fc region; positions are EU index; also called D270E P396L G316D R416G
# B4: Fc variant D270E G316D R416G (other, UniProt P01857-1 99-330, looked up, name in EU numbering)
# chain: B3 chain with L181P
# notes: domain: Fc region; positions are EU index
# B5: Fc variant D270E K392T P396L (other, UniProt P01857-1 99-330, looked up, name in EU numbering)
# chain: B3 chain with D101G, K177T, G201R
# notes: as for B4
# B6: Fc variant F243L D270E G316D R416G (other, UniProt P01857-1 99-330, looked up, name in EU numbering)
# chain: B3 chain with F28L, L181P
# notes: as for B4
# B7: Fc variant F243L D270E K392T P396L (other, UniProt P01857-1 99-330, looked up, name in EU numbering)
# chain: B3 chain with F28L, D101G, K177T, G201R
# notes: as for B4
# B8: Fc variant F243L D270E P396L Q419H (other, UniProt P01857-1 99-330, looked up, name in EU numbering)
# chain: B3 chain with F28L, D101G, G201R, Q204H
# notes: as for B4
# B9: Fc variant F243L P247L D270E N421K (other, UniProt P01857-1 99-330, looked up, name in EU numbering)
# chain: B3 chain with F28L, P32L, D101G, L181P, G201R, N206K
# notes: as for B4
# B10: Fc variant F243L P247L N421K (other, UniProt P01857-1 99-330, looked up, name in EU numbering)
# chain: B3 chain with F28L, P32L, E55D, D101G, L181P, G201R, N206K
# notes: as for B4
# B11: Fc variant F243L R255L D270E P396L (other, UniProt P01857-1 99-330, looked up, name in EU numbering)
# chain: B3 chain with F28L, R40L, D101G, G201R
# notes: as for B4
# B12: Fc variant F243L R292P V305I (other, UniProt P01857-1 99-330, looked up, name in EU numbering)
# chain: B3 chain with F28L, E55D, R77P, V90I, D101G, L181P, G201R
# notes: as for B4
# B13: Fc variant F243L R292P V305I P396L (other, UniProt P01857-1 99-330, looked up, name in EU numbering)
# chain: B3 chain with F28L, E55D, R77P, V90I, D101G, G201R
# notes: as for B4
# B14: Fc variant F243L R292P Y300L P396L (other, UniProt P01857-1 99-330, looked up, name in EU numbering)
# chain: B3 chain with F28L, E55D, R77P, Y85L, D101G, G201R
# notes: as for B4
# B15: Fc variant F243L R292P Y300L V305I P396L (other, UniProt P01857-1 99-330, looked up, name in EU numbering)
# chain: B3 chain with F28L, E55D, R77P, Y85L, V90I, D101G, G201R
# notes: domain: Fc region
# B16: Fc variant P247L D270E N421K (other, UniProt P01857-1 99-330, looked up, name in EU numbering)
# chain: B3 chain with P32L, D101G, L181P, G201R, N206K
# notes: as for B4
# B17: Fc variant R255L D270E P396L (other, UniProt P01857-1 99-330, looked up, name in EU numbering)
# chain: B3 chain with R40L, D101G, G201R
# notes: as for B4
# B18: Fc variant R255L D270E Y300L P396L (other, UniProt P01857-1 99-330, looked up, name in EU numbering)
# chain: B3 chain with R40L, Y85L, D101G, G201R
# notes: as for B4
# B19: Fc variant R292P V305I P396L (other, UniProt P01857-1 99-330, looked up, name in EU numbering)
# chain: B3 chain with E55D, R77P, V90I, D101G, G201R
# notes: as for B4
# B20: Fc variant D270E P396L Q419H (other, UniProt P01857-1 99-330, looked up, name in EU numbering)
# chain: B3 chain with D101G, G201R, Q204H
# notes: as for B4
# B21: Fc variant R255L D270E R292G P396L (other, UniProt P01857-1 99-330, looked up, name in EU numbering)
# chain: B3 chain with R40L, R77G, D101G, G201R
# notes: as for B4
# Biological target: human CD16A (FcγRIII-A) (human, UniProt P08637 17-208, limits assumed)
# Assay: method not stated; reference not named (Fc-optimized against wild-type)
# human CD16A (FcγRIII-A), sequence (P08637 17-208 limits assumed): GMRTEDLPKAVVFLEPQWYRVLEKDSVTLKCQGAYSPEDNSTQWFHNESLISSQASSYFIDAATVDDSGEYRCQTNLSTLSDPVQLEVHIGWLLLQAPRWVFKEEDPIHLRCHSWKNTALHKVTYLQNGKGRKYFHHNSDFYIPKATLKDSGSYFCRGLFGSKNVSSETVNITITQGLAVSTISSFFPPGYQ
row,Binder,fold increase in binding [fold]
1,B1,10

# Biological target: T2, HER-2 (UniProt P04626 23-652, limits assumed)
# T2 construct: also called HER2/neu; erbB-2
# Assay: SPR (BIAcore 1000), HER-2 amine-coupled to chip, antibody injected at 6.25-200 nM
# Protocol: The kinetic parameters of the binding of eluted and purified antibodies were analyzed using a BIAcore assay (BIAcore instrument 1000, BIAcore Inc., Piscataway, N.J.) and associated software. HER-2 was immobilized on one of the four flow cells (flow cell 2) of a sensor chip surface through amine coupling chemistry (by modification of carboxymethyl groups with mixture of NHS/EDC) such that about 1000 response units (RU) of receptor was immobilized on the surface. Following this, the unreacted active esters were “capped off” with an injection of 1M Et-NH2.
Binder,koff [s⁻¹],kon [M⁻¹ s⁻¹]
B2,~3.2e-07,170000

# Biological target: CD16A F158 (human, UniProt P08637 17-208, limits assumed)
# Assay: Table 3; relative to wild-type Fc; method not stated
# CD16A F158, sequence (P08637 17-208 limits assumed): as above
row,Binder,binding relative to wild-type Fc (fold)
1,B3,0.94
2,B4,2.49
3,B5,2.28
4,B6,1.34
5,B7,2.44
6,B8,1.15
7,B9,3.45
8,B10,1.71
9,B11,1.64
10,B12,1.43
11,B13,2.53
12,B14,5.62
13,B15,8.25
14,B16,2.46
15,B17,1.65
16,B18,1.74
17,B19,1.9

# Biological target: CD16A V158 (human, UniProt P08637 17-208, limits assumed)
# Assay: as above
# CD16A V158, sequence (P08637 17-208 F176V limits assumed): as the sequence (P08637 17-208 limits assumed) above, with F160V counted along it
row,Binder,binding relative to wild-type Fc (fold)
1,B3,1.22
2,B4,2.18
3,B5,1.81
4,B20,1.64
5,B6,1.5
6,B7,3.16
7,B8,1.46
8,B9,2.3
9,B10,1.89
10,B11,1.75
11,B12,2.56
12,B13,5.37
13,B14,10.1
14,B15,10.1
15,B16,1.89
16,B17,1.34
17,B18,1.52
18,B19,1.85

# Biological target: T1, CD32B (FcγRII-B)
# Assay: as above
row,Binder,binding relative to wild-type Fc (fold)
1,B3,1.07
2,B4,0.78
3,B5,0.79
4,B20,0.68
5,B6,0.2
6,B7,0.44
7,B8,0.26
8,B9,0.32
9,B10,0.17
10,B11,0.38
11,B13,0.4
12,B14,1.07
13,B15,1.38
14,B16,0.58
15,B17,0.87
16,B21,0.65
17,B18,0.87
18,B19,0.92
